B1: Cytochrome c-553 wild type, B8C6L5 (protein)
chain: MKLTIVAALIASASAWTTPKSFESVKAAVAGAAVTAGVAVSPAFAGDVGAGEQIFNANCAACHAGGQNVIMPDKTLEKEALEQYLAGGRNEKAVMTQVTNGKNAMPAFGGRLSDEDIANVASYVIATSEAGWD
B2: Cytochrome c-553 wild type, A0A1E7EP28 (protein)
chain: MKFAIFATLLVSASAFSINKADVAKAAAAGAIAFSVAAGPAFAGDVGAGEQIFNANCAACHAGGQNVIMPEKTLEKEALDQYLSGGRSEKSVMTQVTNGKNAMPAFGGRLSEEDIANVASYVISSAEAGWEE

For orientation: Tm means the temperature at the midpoint of the melting transition.

The conditions of the first data set: Thalassiosira pseudonana; pH 7.4; 15 °C; GdnHCl; UV/Vis spectroscopy; HEPES; potassium ferricyanide; transition: 2; reversible: > 90% (Yes); whole UniProt chain shown.
Turning to B1, the denaturant m value was found to be 2.1 kcal/mol/M, the “denaturant midpoint (higher = more stable)” value turned out to be 1.2 M and the unfolding free energy was 2.63 kcal/mol.

The same data set, now with this note: Thalassiosira pseudonana; pH 7.4; Thermal; UV/Vis spectroscopy; HEPES; transition: 2; reversible: > 90% (Yes); whole UniProt chain shown.
As to B1, the Tm was 39.1 °C and the “unfolding enthalpy (van 't Hoff)” value stood at 38.7 kcal/mol.

The same data set, now with this note: Fragilariopsis cylindrus CCMP1102; pH 7.4; 15 °C; GdnHCl; UV/Vis spectroscopy; HEPES; potassium ferricyanide; transition: 2; reversible: > 90% (Yes); whole UniProt chain shown.
Take B2: the denaturant m value was determined as 4.6 kcal/mol/M, the “denaturant midpoint (higher = more stable)” value was 0.5 M and the unfolding free energy worked out at 2.15 kcal/mol.

Still in this data set, the particulars now being: Fragilariopsis cylindrus CCMP1102; pH 7.4; Thermal; UV/Vis spectroscopy; HEPES; transition: 2; reversible: > 90% (Yes); whole UniProt chain shown.
Regarding B2, the Tm was found to be 28.8 °C and the “unfolding enthalpy (van 't Hoff)” value is 44.7 kcal/mol.

(Values after FireProtDB (doi:10.1007/s00775-020-01777-0).)
